Laboratory results as given in patent US20190086422A1.

How the values were obtained:
[1] = biological target: Tau protein from human CSF (human) (UniProt P10636); assay: IP from human CSF, trypsin digest, MS; Tau peptide 6-23 (SEQ ID NO 69) quantified
[2] = biological target: Tau protein from human CSF (human) (UniProt P10636); assay: IP from human CSF, trypsin digest, MS; Tau peptide 24-44 (SEQ ID NO 70) quantified
[3] = biological target: Tau protein from human CSF (human) (UniProt P10636); assay: IP from human CSF, trypsin digest, MS; Tau peptide 45-67 (SEQ ID NO 71) quantified
[4] = biological target: Tau protein from human CSF (human) (UniProt P10636); assay: IP from human CSF, trypsin digest, MS; Tau peptide 68-87 (SEQ ID NO 72) quantified
[5] = biological target: Tau protein from human CSF (human) (UniProt P10636); assay: IP from human CSF, trypsin digest, MS; Tau peptide 88-126 (SEQ ID NO 73) quantified
[6] = biological target: Tau protein from human CSF (human) (UniProt P10636); assay: IP from human CSF, trypsin digest, MS; Tau peptide 151-155 (SEQ ID NO 74) quantified
[7] = biological target: Tau protein from human CSF (human) (UniProt P10636); assay: IP from human CSF, trypsin digest, MS; Tau peptide 175-180 (SEQ ID NO 75) quantified
[8] = biological target: Tau protein from human CSF (human) (UniProt P10636); assay: IP from human CSF, trypsin digest, MS; Tau peptide 181-190 (SEQ ID NO 76) quantified
[9] = biological target: Tau protein from human CSF (human) (UniProt P10636); assay: IP from human CSF, trypsin digest, MS; Tau peptide 195-209 (SEQ ID NO 77) quantified
[10] = biological target: Tau protein from human CSF (human) (UniProt P10636); assay: IP from human CSF, trypsin digest, MS; Tau peptide 212-221 (SEQ ID NO 78) quantified
[11] = biological target: Tau protein from human CSF (human) (UniProt P10636); assay: IP from human CSF, trypsin digest, MS; Tau peptide 212-224 (SEQ ID NO 79) quantified
[12] = biological target: Tau protein from human CSF (human) (UniProt P10636); assay: IP from human CSF, trypsin digest, MS; Tau peptide 260-267 (SEQ ID NO 80) quantified
[13] = biological target: Tau protein from human CSF (human) (UniProt P10636); assay: IP from human CSF, trypsin digest, MS; Tau peptide 275-280 (SEQ ID NO 81) quantified
[14] = biological target: Tau protein from human CSF (human) (UniProt P10636); assay: IP from human CSF, trypsin digest, MS; Tau peptide 282-290 (SEQ ID NO 82) quantified
[15] = biological target: Tau protein from human CSF (human) (UniProt P10636); assay: IP from human CSF, trypsin digest, MS; Tau peptide 354-369 (SEQ ID NO 84) quantified
[16] = biological target: Tau protein from human CSF (human) (UniProt P10636); assay: IP from human CSF, trypsin digest, MS; Tau peptide 386-395 (SEQ ID NO 85) quantified
[17] = biological target: Tau protein from human CSF (human) (UniProt P10636); assay: IP from human CSF, trypsin digest, MS; Tau peptide 396-406 (SEQ ID NO 86) quantified
[18] = biological target: Tau protein from human CSF (human) (UniProt P10636); assay: IP from human CSF, trypsin digest, MS; Tau peptide 299-316 as printed (SEQ ID NO 83) quantified

Sequence of UniProt P10636 (P10636 other isoform, or with tags, fused parts or gaps limits assumed): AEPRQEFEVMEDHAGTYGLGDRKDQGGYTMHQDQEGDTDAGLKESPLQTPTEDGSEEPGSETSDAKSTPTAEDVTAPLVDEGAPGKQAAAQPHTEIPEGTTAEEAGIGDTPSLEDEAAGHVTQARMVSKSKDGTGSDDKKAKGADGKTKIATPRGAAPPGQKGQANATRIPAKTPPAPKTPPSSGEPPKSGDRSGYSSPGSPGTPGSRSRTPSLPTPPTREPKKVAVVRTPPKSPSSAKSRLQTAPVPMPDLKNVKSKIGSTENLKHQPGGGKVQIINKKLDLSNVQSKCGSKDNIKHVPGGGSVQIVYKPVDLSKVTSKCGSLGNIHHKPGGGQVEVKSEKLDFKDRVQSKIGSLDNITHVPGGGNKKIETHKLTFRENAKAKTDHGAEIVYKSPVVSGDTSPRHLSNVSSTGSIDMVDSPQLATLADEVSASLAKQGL

HJ8.7 (antibody)
Peptide Intensity (fraction of the highest abundance among the three IP antibodies) [1]: 0.68 | Peptide Intensity (fraction of the highest abundance among the three IP antibodies) [2]: 0.84 | Peptide Intensity (fraction of the highest abundance among the three IP antibodies) [3]: 1 | Peptide Intensity (fraction of the highest abundance among the three IP antibodies) [4]: 1 | Peptide Intensity (fraction of the highest abundance among the three IP antibodies) [5]: 1 | Peptide Intensity (fraction of the highest abundance among the three IP antibodies) [6]: 1 | Peptide Intensity (fraction of the highest abundance among the three IP antibodies) [7]: 1 | Peptide Intensity (fraction of the highest abundance among the three IP antibodies) [8]: 1 | Peptide Intensity (fraction of the highest abundance among the three IP antibodies) [9]: 0.8 | Peptide Intensity (fraction of the highest abundance among the three IP antibodies) [10]: 0.86 | Peptide Intensity (fraction of the highest abundance among the three IP antibodies) [11]: 0.94 | Peptide Intensity (fraction of the highest abundance among the three IP antibodies) [12]: 1 | Peptide Intensity (fraction of the highest abundance among the three IP antibodies) [13]: 1 | Peptide Intensity (fraction of the highest abundance among the three IP antibodies) [14]: 0.04 | Peptide Intensity (fraction of the highest abundance among the three IP antibodies) [15]: 1 | Peptide Intensity (fraction of the highest abundance among the three IP antibodies) [16]: 1 | Peptide Intensity (fraction of the highest abundance among the three IP antibodies) [17]: 0.39 | Peptide Intensity (fraction of the highest abundance among the three IP antibodies) [18]: 1

Tau12 (antibody)
Peptide Intensity (fraction of the highest abundance among the three IP antibodies) [1]: 1 | Peptide Intensity (fraction of the highest abundance among the three IP antibodies) [2]: 0.15 | Peptide Intensity (fraction of the highest abundance among the three IP antibodies) [3]: 0.92 | Peptide Intensity (fraction of the highest abundance among the three IP antibodies) [4]: 0.47 | Peptide Intensity (fraction of the highest abundance among the three IP antibodies) [5]: 0.59 | Peptide Intensity (fraction of the highest abundance among the three IP antibodies) [6]: 0.87 | Peptide Intensity (fraction of the highest abundance among the three IP antibodies) [7]: 0.99 | Peptide Intensity (fraction of the highest abundance among the three IP antibodies) [8]: 0.46 | Peptide Intensity (fraction of the highest abundance among the three IP antibodies) [9]: 1 | Peptide Intensity (fraction of the highest abundance among the three IP antibodies) [10]: 1 | Peptide Intensity (fraction of the highest abundance among the three IP antibodies) [11]: 1 | Peptide Intensity (fraction of the highest abundance among the three IP antibodies) [12]: 0.86 | Peptide Intensity (fraction of the highest abundance among the three IP antibodies) [13]: 0.31 | Peptide Intensity (fraction of the highest abundance among the three IP antibodies) [14]: 1 | Peptide Intensity (fraction of the highest abundance among the three IP antibodies) [15]: 0.86 | Peptide Intensity (fraction of the highest abundance among the three IP antibodies) [16]: 0.68 | Peptide Intensity (fraction of the highest abundance among the three IP antibodies) [17]: 0.42 | Peptide Intensity (fraction of the highest abundance among the three IP antibodies) [18]: 0.82
